B1: VH1.4 gD fusion protein (herpes glycoprotein D sequence fused to the putative mature sequence of VRP, plasmid pRK.vh1.4.5) (ligand)
chain: KYALADASLKMADPNRFRGKDLPVLDQLLEGGAAHYALLPGPREAPAAAAAFESGLDLSDAEPDAGEATAYASKDLEEQLRSVSSVDELMTVLYPEYWKMYKCQLRKGGWQHNREQANLNSRTEETIKFAAAHTNTEILKSIDNEWRKTQCMPREVCIDVGKEFGVATNTFFKPPCVSVYRCGGCCNSEGLQCMNTSTSYLSKTLFEITVPLSQGPKPVTISFANHTSCRCMSKLDVYRQVHSIIRRSLPATLPQCQAANKTCPTNYMWNNHICRCLAQEDFMFSSDAGDDSTDGFHDICGPNKELDEETCQCVCRAGLRPASCGPHKELDRNSCQCVCKNKLFPSQCGANREFDENTCQCVCKRTCPRNQPLNPGKCACECTESPQKCLLKGKKFHHQTCSCYRRPCTNRQKACEPGFSYSEEVCRCVPSYWKRPQMS
notes: also called purified VRP; gD-VRP
B2: Flt4/IgG (extracellular domain of the Flt4 receptor, amino acids 1-775, spliced to the Fc region of a human IgG heavy chain) (Fc fusion, UniProt P35916 25-775, looked up)
chain: YSMTPPTLNITEESHVIDTGDSLSISCRGQHPLEWAWPGAQEAPATGDKDSEDTGVVRDCEGTDARPYCKVLLLHEVHANDTGSYVCYYKYIKARIEGTTAASSYVFVRDFEQPFINKPDTLLVNRKDAMWVPCLVSIPGLNVTLRSQSSVLWPDGQEVVWDDRRGMLVSTPLLHDALYLQCETTWGDQDFLSNPFLVHITGNELYDIQLLPRKSLELLVGEKLVLNCTVWAEFNSGVTFDWDYPGKQAERGKWVPERRSQQTHTELSSILTIHNVSQHDLGSYVCKANNGIQRFRESTEVIVHENPFISVEWLKGPILEATAGDELVKLPVKLAAYPPPEFQWYKDGKALSGRHSPHALVLKEVTEASTGTYTLALWNSAAGLRRNISLELVVNVPPQIHEKEASSPSIYSRHSRQALTCTAYGVPLPLSIQWHWRPWTPCKMFAQRSLRRRQQQDLMPQCRDWRAVTTQDAVNPIESLDTWTEFVEGKNKTVSKLVIQNANVSAMYKCVVSNKVGQDERLIYFYVTTIPDGFTIESKPSEELLEGQPVLLSCQADSYKYEHLRWYRLNLSTLHDAHGNPLLLDCKNVHLFATPLAASLEEVAPGARHATLSLSIPRVAPEHEGHYVCEVQDRRSHDKHCHKKYLSVQALEAPRLTQNLTDLLVNVSDSLEMQCLVAGAHAPSIVWYKDERLLEEKSGVDLADSNQKLSIQRVREEDAGRYLCSVCNAKGCVNSSASVAVEGSEDKGSME
modifications: 125I-iodinated where used as the labeled form (Example 6)
notes: range 25-775; also called Flt4 receptor-IgG fusion; ^125I-Flt4/IgG; not shown: Fc region (CH2CH3, plasmid pBSSK-Fc) of a human IgG heavy chain
B3: human VEGF-related protein (VRP), expressed from cDNA clone VH1.4 (plasmid pRK.vh1.4.2) (ligand)
chain: GPREAPAAAAAFESGLDLSDAEPDAGEATAYASKDLEEQLRSVSSVDELMTVLYPEYWKMYKCQLRKGGWQHNREQANLNSRTEETIKFAAAHTNTEILKSIDNEWRKTQCMPREVCIDVGKEFGVATNTFFKPPCVSVYRCGGCCNSEGLQCMNTSTSYLSKTLFEITVPLSQGPKPVTISFANHTSCRCMSKLDVYRQVHSIIRRSLPATLPQCQAANKTCPTNYMWNNHICRCLAQEDFMFSSDAGDDSTDGFHDICGPNKELDEETCQCVCRAGLRPASCGPHKELDRNSCQCVCKNKLFPSQCGANREFDENTCQCVCKRTCPRNQPLNPGKCACECTESPQKCLLKGKKFHHQTCSCYRRPCTNRQKACEPGFSYSEEVCRCVPSYWKRPQMS
modifications: 35S-labeled amino acids in Example 4
notes: The cleavage site after amino acid 20 is predicted ('most likely'; cleavage after 15 or 16 is not excluded); Flt4/IgG precipitated bands of 53 kDa and 33 kDa, so the secreted protein may be further processed
B4: Labeled VEGF (ligand, UniProt P15692-4 27-191, looked up)
chain: APMAEGGGQNHHEVVKFMDVYQRSYCHPIETLVDIFQEYPDEIEYIFKPSCVPLMRCGGCCNDEGLECVPTEESNITMQIMRIKPHQGQHIGEMSFLQHNKCECRPKKDRARQENPCGPCSERRKHLFVQDPQTCKCSCKNTDSRCKARQLELNERTCRCDKPRR
modifications: labeled (label not stated)
B5: VEGF165 (expression plasmid of Houck et al.) (ligand, UniProt P15692-4 27-191, looked up)
chain: B4 chain
modifications: 35S-labeled amino acids in Example 4
notes: The background calls VEGF a homodimer
B6: PlGF152 (expression plasmid of Park et al.) (ligand, UniProt P49763-3 19-170, looked up)
chain: LPAVPPQQWALSAGNGSSEVEVVPFQEVWGRSYCRALERLVDVVSEYPSEVEHMFSPSCVSLLRCTGCCGDENLHCVPVETANVTMQLLKIRSGDRPSYVELTFSQHVRCECRPLREKMKPERRRPKGRGKRRREKQRPTDCHLCGDAVPRR
modifications: 35S-labeled amino acids
notes: also called PIGF; placental growth factor

Tests used:
[1] = target: B2; assay: ^125I-Flt4/IgG binding to gD-VRP captured on 5B6 glass beads, filtration and counting
[2] = target: putative membrane-bound VRP (putative membrane-bound ligand) on human glioma cell line G61; assay: FACS, 70 nM receptor IgG on G61 cells, compared with Rse/IgG
[3] = target: B1; assay: competition of ^125I-Flt4/IgG binding to gD-VRP on 5B6 beads by increasing unlabeled Flt4/IgG
[4] = target: B2; assay: receptor IgG / protein A precipitation of 35S-labeled COS7 conditioned medium
[5] = target: B2; assay: binding of labeled VEGF to receptor IgG
[6] = target: B2; assay: receptor IgG / protein A precipitation of 35S-labeled conditioned medium
Flk1/IgG = target: T1, Flk1/IgG (UniProt P35968 20-764, limits assumed); assay: as above
T1 construct: Construct known only by citation
T1 sequence (P35968 20-764 limits assumed): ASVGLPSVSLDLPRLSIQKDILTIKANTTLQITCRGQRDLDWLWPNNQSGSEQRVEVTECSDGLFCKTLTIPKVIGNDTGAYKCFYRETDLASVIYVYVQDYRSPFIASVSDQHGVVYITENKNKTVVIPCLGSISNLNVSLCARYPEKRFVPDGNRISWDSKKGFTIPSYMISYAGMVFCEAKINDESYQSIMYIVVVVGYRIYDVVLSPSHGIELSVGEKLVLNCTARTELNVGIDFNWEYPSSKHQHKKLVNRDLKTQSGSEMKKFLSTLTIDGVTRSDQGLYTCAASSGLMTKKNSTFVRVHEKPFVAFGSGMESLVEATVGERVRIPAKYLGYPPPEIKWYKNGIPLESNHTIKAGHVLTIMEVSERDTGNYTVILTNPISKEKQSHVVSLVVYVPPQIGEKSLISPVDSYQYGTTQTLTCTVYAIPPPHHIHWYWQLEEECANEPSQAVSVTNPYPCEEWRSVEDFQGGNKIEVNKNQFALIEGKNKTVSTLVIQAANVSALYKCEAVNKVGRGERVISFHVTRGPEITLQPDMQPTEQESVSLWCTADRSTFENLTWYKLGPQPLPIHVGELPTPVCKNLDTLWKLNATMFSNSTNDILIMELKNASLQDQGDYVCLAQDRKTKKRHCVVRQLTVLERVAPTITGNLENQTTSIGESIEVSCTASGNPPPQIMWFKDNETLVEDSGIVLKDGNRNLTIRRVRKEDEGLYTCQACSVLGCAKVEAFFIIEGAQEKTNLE

B1: binds [1].

B2 was tested, and the “shift in peak fluorescence intensity” value [2] was roughly 10 fold and the EC50 [3] was roughly 0.7 nM.

B3: binds [4].

B4: no binding [5].

B5: no binding (tested: 3 µg of receptor IgG) [6].

B6: no binding (tested: 3 µg of receptor IgG) (Flk1/IgG); no binding (tested: 3 µg of receptor IgG) [6].

From patent US20030166873A1 (Genentech, published 2003)
